Test results reported in PMC4751086, “Structural Study of the HD-PTP Bro1 Domain in a Complex with the Core Region of STAM2, a Subunit of ESCRT-0” (PLoS ONE, 2016).

T1: HD-PTP(1–361) (human, UniProt Q9H3S7 1-361)
T1 construct: also called HD-PTP Bro1 domain; PTPN23; source: E. coli BL21(DE3) RIL, purified (Ni-NTA, TEV protease, gel filtration); not shown: (His)6, N-terminal, cleaved
T1 sequence (looked up): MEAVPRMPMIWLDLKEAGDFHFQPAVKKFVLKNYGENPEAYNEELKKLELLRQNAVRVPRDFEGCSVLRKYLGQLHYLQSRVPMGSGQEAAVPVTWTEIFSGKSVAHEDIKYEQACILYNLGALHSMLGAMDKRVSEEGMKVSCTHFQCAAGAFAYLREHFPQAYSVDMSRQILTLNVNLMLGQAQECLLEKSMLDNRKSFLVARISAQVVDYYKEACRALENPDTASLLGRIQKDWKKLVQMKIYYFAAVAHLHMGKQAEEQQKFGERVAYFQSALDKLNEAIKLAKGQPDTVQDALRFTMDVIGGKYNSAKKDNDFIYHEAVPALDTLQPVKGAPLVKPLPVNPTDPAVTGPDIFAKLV

T2: HD-PTP(1–361;T145R) (human, UniProt Q9H3S7 1-361, T145R)
T2 construct: source: E. coli BL21(DE3) RIL, purified (Ni-NTA, gel filtration)
T2 sequence (looked up): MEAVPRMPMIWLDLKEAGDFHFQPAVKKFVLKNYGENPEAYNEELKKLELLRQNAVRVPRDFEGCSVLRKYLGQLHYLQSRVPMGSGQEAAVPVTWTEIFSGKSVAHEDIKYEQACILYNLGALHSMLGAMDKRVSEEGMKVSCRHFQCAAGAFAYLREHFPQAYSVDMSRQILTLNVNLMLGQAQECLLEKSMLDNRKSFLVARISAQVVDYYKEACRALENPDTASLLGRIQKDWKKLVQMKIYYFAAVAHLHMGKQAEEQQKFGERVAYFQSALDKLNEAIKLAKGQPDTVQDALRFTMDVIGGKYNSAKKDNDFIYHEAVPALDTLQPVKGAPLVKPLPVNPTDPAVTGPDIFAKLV

T3: HD-PTP(1–361) with T145A substitution (human, UniProt Q9H3S7 1-361, T145A)
T3 construct: source: E. coli BL21(DE3) RIL, purified (Ni-NTA, gel filtration)
T3 sequence (looked up): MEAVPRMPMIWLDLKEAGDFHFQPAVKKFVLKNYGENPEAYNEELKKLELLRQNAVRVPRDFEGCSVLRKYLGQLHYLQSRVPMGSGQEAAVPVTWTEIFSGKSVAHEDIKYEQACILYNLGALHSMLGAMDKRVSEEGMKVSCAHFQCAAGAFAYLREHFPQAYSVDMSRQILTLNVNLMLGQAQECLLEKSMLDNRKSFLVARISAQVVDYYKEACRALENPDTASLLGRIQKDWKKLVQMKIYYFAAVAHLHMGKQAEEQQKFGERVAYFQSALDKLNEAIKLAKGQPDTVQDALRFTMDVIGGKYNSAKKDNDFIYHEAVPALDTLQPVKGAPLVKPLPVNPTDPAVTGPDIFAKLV

T4: HD-PTP(1–361;T145K) (human, UniProt Q9H3S7 1-361, T145K)
T4 construct: source: E. coli BL21(DE3) RIL, purified (Ni-NTA, gel filtration)
T4 sequence (looked up): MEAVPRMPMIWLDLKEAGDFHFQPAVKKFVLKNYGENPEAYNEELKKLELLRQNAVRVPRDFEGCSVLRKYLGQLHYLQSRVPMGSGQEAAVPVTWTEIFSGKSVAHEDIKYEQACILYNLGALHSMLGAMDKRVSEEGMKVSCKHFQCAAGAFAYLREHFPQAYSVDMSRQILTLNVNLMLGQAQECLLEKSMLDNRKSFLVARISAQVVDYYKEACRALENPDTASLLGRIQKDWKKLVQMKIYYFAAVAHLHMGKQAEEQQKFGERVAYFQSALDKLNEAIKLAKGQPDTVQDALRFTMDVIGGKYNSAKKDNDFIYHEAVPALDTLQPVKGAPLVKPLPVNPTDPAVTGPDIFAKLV


Key:
Conditions in all cases: both partners purified
HD-PTP(1–361) [1] = molecular target: T1, HD-PTP(1–361); assay: SEC; Superose 6 10/300 GL gel filtration column; mixture of HD-PTP(1–361) and STAM2 fragment; peak fractions analysed by SDS-PAGE and Coomassie staining
HD-PTP(1–361;T145R) = molecular target: T2, HD-PTP(1–361;T145R); assay: ITC; 0.5 mM peptide titrated into 50 μM protein; iTC200; 2°C as printed; 20 mM Tris-HCl (pH 7.5), 100 mM NaCl
[2] = molecular target: T3, HD-PTP(1–361) with T145A substitution; assay: as above
HD-PTP(1–361) [3] = molecular target: T1, HD-PTP(1–361); assay: as above
HD-PTP(1–361;T145K) = molecular target: T4, HD-PTP(1–361;T145K); assay: as above

binding result (HD-PTP(1–361) [1]) | Kd (HD-PTP(1–361;T145R)) | Kd [2] | Kd (HD-PTP(1–361) [3]) | Kd (HD-PTP(1–361;T145K)) | Binder
binds |  |  |  |  | STAM2(311–370) (domain or fragment, source: E. coli BL21(DE3) RIL, purified (Ni-NTA, gel filtration)) not shown
binds |  |  |  |  | STAM2(260–370) (domain or fragment, STAM2, human, core region, residues 260–370; also called STAM2 core region containing residues 260–370; signal-transducing adaptor molecule 2; source: E. coli BL21(DE3) RIL, purified (Ni-NTA, gel filtration)) not shown
 | < 8 µM | < 8 µM | < 8 µM | < 8 µM | KEEEDDDMKELENWAGSM (peptide, UniProt Q9H444 207-224, looked up, CHMP4B, residues 207–224 (18-mer; the polypeptide terminates with Met224); also called CHMP4B peptide of 18-mer (residues 207–224); charged multivesicular body protein 4B; source: synthetic peptide, bought: Peptron (Korea)) [CHMP4B(207–224)]
